# Positions count from the first letter of the chain named. Names and notes keep the numbering of the source. Like-named read-outs stand apart in the source and are kept apart here. Where no end group is shown, it is not given here.
# T1: Human TROP2 ECD (31-274 AA), biotinylated (human, UniProt P09758 31-274, biotinylated (site not stated))
# T1 construct: also called tumor-associated calcium signal transducer 2; Human TROP2-biotin
# T1 sequence: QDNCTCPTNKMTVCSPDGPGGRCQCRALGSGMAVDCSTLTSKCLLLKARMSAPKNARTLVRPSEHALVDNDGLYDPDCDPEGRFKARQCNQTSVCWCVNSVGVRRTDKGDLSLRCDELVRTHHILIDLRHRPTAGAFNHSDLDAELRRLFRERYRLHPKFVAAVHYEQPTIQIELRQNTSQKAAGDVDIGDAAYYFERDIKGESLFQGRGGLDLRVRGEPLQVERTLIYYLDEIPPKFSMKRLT
# B1: PC-10 (bispecific antibody)
# light: GGVDFCGLYHWPICYQGGGGSSGGSAAGLLAPPGGLSGRSDAGGGGSDIQLTQSPSSLSASVGDRVSITCKASQDVSIAVAWYQQKPGKAPKLLIYSASYRYTGVPDRFSGSGSGTDFTLTISSLQPEDFAVYYCQQHYITPLTFGAGTKVEIKRTVAAPSVFIFPPSDEQLKSGTASVVCLLNNFYPREAKVQWKVDNALQSGNSQESVTEQDSKDSTYSLSSTLTLSKADYEKHKVYACEVTHQGLSSPVTKSFNRGEC
# heavy: not shown
# notes: anti-TROP2 D109A
# B2: TBD-6 (anti-TROP2 Fab, LC I93A) (Fab, V domains shown)
# VH: QVQLQQSGSELKKPGASVKVSCKASGYTFTNYGMNWVKQAPGQGLKWMGWINTYTGEPTYTDDFKGRFAFSLDTSVSTAYLQISSLKADDTAVYFCARGGFGSSYWYFDVWGQGSLVTVSS
# VL: DIQLTQSPSSLSASVGDRVSITCKASQDVSIAVAWYQQKPGKAPKLLIYSASYRYTGVPDRFSGSGSGTDFTLTISSLQPEDFAVYYCQQHYATPLTFGAGTKVEIKR
# notes: also called TBD-6 (LC I93A mutant)
# B3: TBD-8 (anti-TROP2 Fab, LC P95A) (Fab, V domains shown)
# VH: B2 VH
# VL: B2 VL with A93I, P95A
# B4: TBD-19 (anti-TROP2 Fab, HC W106A) (Fab, V domains shown)
# VH: B2 VH with W106A
# VL: B2 VL with A93I
# B5: TBD-9 (anti-TROP2 Fab, LC L96A) (Fab, V domains shown)
# VH: B2 VH
# VL: B2 VL with A93I, L96A
# B6: TBD-10 (anti-TROP2 Fab, LC T97A) (Fab, V domains shown)
# VH: B2 VH
# VL: B2 VL with A93I, T97A
# B7: TBD-7 (anti-TROP2 Fab, LC T94A) (Fab, V domains shown)
# VH: B2 VH
# VL: B2 VL with A93I, T94A
# B8: TBD-18 (anti-TROP2 Fab, HC Y105A) (Fab, V domains shown)
# VH: B2 VH with Y105A
# VL: B2 VL with A93I
# B9: PC-9 (bispecific antibody)
# light: not shown
# heavy: GGVDFCGLYHWPICYQGGGGSGGLSGRSDAGSPLGLAGSGGSQVQLQQSGSELKKPGASVKVSCKASGYTFTNYGMNWVKQAPGQGLKWMGWINTYTGEPTYTDDFKGRFAFSLDTSVSTAYLQISSLKADDTAVYFCARGGFGSSYWYFAVWGQGSLVTVSSASTKGPSVFPLAPSSKSTSGGTAALGCLVKDYFPEPVTVSWNSGALTSGVHTFPAVLQSSGLYSLSSVVTVPSSSLGTQTYICNVNHKPSNTKVDKKVEPKSC
# notes: anti-TROP2 D109A
# B10: PC-11 (bispecific antibody)
# light: not shown
# heavy: GGVDFCGLYHWPICYQGGGGSSGGSAAGLLAPPGGLSGRSDAGGGGSQVQLQQSGSELKKPGASVKVSCKASGYTFTNYGMNWVKQAPGQGLKWMGWINTYTGEPTYTDDFKGRFAFSLDTSVSTAYLQISSLKADDTAVYFCARGGFGSSYWYFAVWGQGSLVTVSSASTKGPSVFPLAPSSKSTSGGTAALGCLVKDYFPEPVTVSWNSGALTSGVHTFPAVLQSSGLYSLSSVVTVPSSSLGTQTYICNVNHKPSNTKVDKKVEPKSC
# notes: anti-TROP2 D109A
# Assays:
# [1] = biological target: T1, Human TROP2 ECD (31-274 AA), …; test: ELISA on immobilized TROP2
# [2] = biological target: T1, Human TROP2 ECD (31-274 AA), …; test: BLI (Octet), dissociation half-life from biotinylated human TROP2 ECD
# [3] = biological target: T1, Human TROP2 ECD (31-274 AA), …; test: ELISA: biotinylated TROP2 captured on neutravidin plate, Fab titrated, HRP secondary antibody
# [4] = biological target: T1, Human TROP2 ECD (31-274 AA), …; test: BLI (Octet), biotinylated human TROP2 ECD on SAX sensor, Fab 6.25-50 nM
# [5] = biological target: T1, Human TROP2 ECD (31-274 AA), …; test: ELISA, biotinylated TROP2 ECD on neutravidin plate, Fab titrated
# [6] = biological target: T1, Human TROP2 ECD (31-274 AA), …; test: ELISA, ratio of EC50 to that of TBD-1 wt
# [7] = biological target: T1, Human TROP2 ECD (31-274 AA), …; test: ELISA, biotinylated TROP2 ECD on neutravidin plate, Fab titrated; remark: listed apart in the source
# [8] = biological target: T1, Human TROP2 ECD (31-274 AA), …; test: ELISA: biotinylated TROP2 captured on neutravidin plate, Fab titrated, HRP secondary antibody; remark: listed apart in the source
# [9] = biological target: T1, Human TROP2 ECD (31-274 AA), …; test: ELISA, ratio of EC50 to that of TBD-1 wt; remark: listed apart in the source
# [10] = biological target: T2, TCE-31 (anti-CD3 scFv W238A; anti-TROP2 wt); test: competition ELISA, TCE on captured CD3
# T2 construct: scFv on the Fab heavy chain; also called TCE-31 (W238A)
# [11] = biological target: T3, TCE-22 (anti-CD3 scFv W112A; anti-TROP2 wt); test: competition ELISA, TCE on captured CD3
# T3 construct: scFv on the Fab heavy chain; also called TCE-22 (W112A)
# [12] = biological target: T4, TCE-33 (anti-CD3 scFv F240A; anti-TROP2 wt); test: competition ELISA, TCE on captured CD3
# T4 construct: scFv on the Fab heavy chain; also called TCE-33 (F240A)
# [13] = biological target: T5, TCE-11 (anti-CD3 scFv H101A; anti-TROP2 wt); test: competition ELISA, TCE on captured CD3
# T5 construct: scFv on the Fab heavy chain; also called TCE-11 (H101A)
# [14] = biological target: T6, TCE-10 (anti-CD3 scFv R100A; anti-TROP2 wt); test: competition ELISA, TCE on captured CD3
# T6 construct: scFv on the Fab heavy chain; also called TCE-10 (R100A)
# [15] = biological target: T7, TCE-14 (anti-CD3 scFv F104A; anti-TROP2 wt); test: competition ELISA, TCE on captured CD3
# T7 construct: scFv on the Fab heavy chain; also called TCE-14 (F104A)
# [16] = biological target: T8, TCE-20 (anti-CD3 scFv S110A; anti-TROP2 wt); test: competition ELISA, TCE on captured CD3
# T8 construct: scFv on the Fab heavy chain; also called TCE-20 (S110A)
# [17] = biological target: T9, TCE-13 (anti-CD3 scFv N103A; anti-TROP2 wt); test: competition ELISA, TCE on captured CD3
# T9 construct: scFv on the Fab heavy chain; also called TCE-13 (N103A)
# [18] = biological target: T10, TCE-1 (anti-CD3 scFv wt; anti-TROP2 Fab wt); test: competition ELISA: peptide titrated and pre-incubated with a constant concentration of TCE-1, binding of TCE-1 to plate-bound biotinylated CD3 detected
# T10 construct: anti-CD3 scFv fused to the N-terminus of the anti-TROP2 Fab heavy chain; also called TCE-1 (wt)
binder,measurement,setting,value
B1,EC50,[1],181 nM
B2,t1/2,[2],28 min
same,EC50,[3],0.29 nM
same,Kd,[4],0.7 nM
same,EC50,[5],0.3 nM
same,Fold shift in EC50 relative to wt,[6],1.5 fold
B3,t1/2,[2],61 min
same,EC50,[3],0.2 nM
same,Kd,[4],0.3 nM
same,EC50,[5],0.2 nM
same,Fold shift in EC50 relative to wt,[6],1 fold
B4,EC50,[7],702 nM
same,EC50,[8],702 nM
B5,t1/2,[2],5 min
same,EC50,[3],16.8 nM
same,Kd,[4],8.4 nM
same,EC50,[5],16.8 nM
same,Fold shift in EC50 relative to wt,[6],84 fold
B6,t1/2,[2],37 min
same,EC50,[3],0.29 nM
same,Kd,[4],0.6 nM
same,EC50,[5],0.3 nM
same,Fold shift in EC50 relative to wt,[6],1.5 fold
B7,t1/2,[2],39 min
same,EC50,[3],0.22 nM
same,Kd,[4],0.6 nM
same,EC50,[5],0.2 nM
same,Fold shift in EC50 relative to wt,[6],1 fold
B8,Fold shift in EC50 relative to wt,[9],4000 fold
same,EC50,[7],801 nM
same,EC50,[8],801 nM
"ASQCLGPEWEVCPY (cysteine pairing not given here; also: biotinylated, site not given here, mask peptide for the CD3 scFv) [Peptide-74]",IC50,[10],33800 nM
same,IC50,[11],75400 nM
same,IC50,[12],3080 nM
same,IC50,[13],1110 nM
same,IC50,[14],16100 nM
same,IC50,[15],2470 nM
same,IC50,[16],86600 nM
same,IC50,[17],10600 nM
same,binding result,[18],binds
"VYCGPEFDESVGCM (cysteine pairing not given here; also: biotinylated, site not given here, mask peptide for the CD3 scFv) [Peptide-67]",IC50,[10],21600 nM
same,IC50,[11],38500 nM
same,IC50,[12],1250 nM
same,IC50,[13],2820 nM
same,IC50,[14],18600 nM
same,IC50,[15],240 nM
same,IC50,[16],1320 nM
same,IC50,[17],3360 nM
same,binding result,[18],binds
"AYCGPEFDESVGCM (cysteine pairing not given here; also: biotinylated, site not given here, mask peptide for the CD3 scFv) [Peptide-72]",IC50,[10],29900 nM
same,IC50,[11],40200 nM
same,IC50,[12],2700 nM
same,IC50,[13],790 nM
same,IC50,[14],45600 nM
same,IC50,[15],320 nM
same,IC50,[16],3650 nM
same,IC50,[17],3960 nM
same,IC50 (read off the curve),[18],~300 nM
B9,EC50,[1],194 nM
B10,EC50,[1],379 nM
